The results in this text go back to paper PMC10481361, “Structural insight into G-protein chaperone-mediated maturation of a bacterial adenosylcobalamin-dependent mutase” (The Journal of Biological Chemistry, 2023).

Data set [1] addresses T1, IcmF (isobutyryl-CoA mutase fused) (Cupriavidus metallidurans, UniProt Q1LRY0, Q341A).
T1 construct: resting homodimer; oligomerizes with GTP/GMPPCP; modelled residues 22-1093
Kind of data set: cryo-EM, […] Å. The data set is classed as binding. Conditions: sample prepared with 500 μM GTP, 2 μM enzyme; GDP modelled at each nucleotide site of the G-protein domain; Mg2+ in chain A.

Data set [2] has as its target T2, IcmF (isobutyryl-CoA mutase fused) (Cupriavidus metallidurans, UniProt Q1LRY0).
T2 construct: resting homodimer; oligomerizes with GTP/GMPPCP; modelled residues 22-1093
T2 sequence (Q1LRY0 1-1093): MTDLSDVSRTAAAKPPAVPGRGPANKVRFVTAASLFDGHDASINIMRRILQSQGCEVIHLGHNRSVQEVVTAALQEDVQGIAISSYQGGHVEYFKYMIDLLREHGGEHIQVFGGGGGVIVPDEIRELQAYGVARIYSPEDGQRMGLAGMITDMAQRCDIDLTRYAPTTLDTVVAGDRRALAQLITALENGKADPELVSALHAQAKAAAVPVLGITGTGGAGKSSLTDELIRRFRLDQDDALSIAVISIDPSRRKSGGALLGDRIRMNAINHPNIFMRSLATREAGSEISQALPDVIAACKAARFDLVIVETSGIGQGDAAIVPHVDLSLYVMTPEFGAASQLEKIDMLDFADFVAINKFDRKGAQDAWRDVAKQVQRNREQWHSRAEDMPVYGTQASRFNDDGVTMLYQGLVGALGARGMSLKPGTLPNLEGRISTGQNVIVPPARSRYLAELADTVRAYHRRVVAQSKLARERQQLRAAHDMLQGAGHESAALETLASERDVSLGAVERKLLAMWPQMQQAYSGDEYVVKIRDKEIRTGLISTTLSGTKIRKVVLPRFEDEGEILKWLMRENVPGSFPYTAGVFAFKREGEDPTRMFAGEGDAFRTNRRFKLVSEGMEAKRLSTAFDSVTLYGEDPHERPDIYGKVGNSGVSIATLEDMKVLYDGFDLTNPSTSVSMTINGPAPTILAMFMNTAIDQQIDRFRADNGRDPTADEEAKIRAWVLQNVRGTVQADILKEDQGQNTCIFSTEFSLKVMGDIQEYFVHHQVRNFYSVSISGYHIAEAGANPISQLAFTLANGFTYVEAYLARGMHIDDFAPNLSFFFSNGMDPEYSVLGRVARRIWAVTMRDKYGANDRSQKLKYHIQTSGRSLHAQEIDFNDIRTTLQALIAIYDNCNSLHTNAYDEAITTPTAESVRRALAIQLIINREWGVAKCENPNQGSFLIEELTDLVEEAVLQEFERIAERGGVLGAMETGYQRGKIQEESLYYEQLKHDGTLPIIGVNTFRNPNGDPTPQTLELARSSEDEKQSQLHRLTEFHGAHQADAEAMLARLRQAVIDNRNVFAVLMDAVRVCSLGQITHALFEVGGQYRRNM
Kind of data set: negative stain EM of oligomers. The data set is classed as binding. Conditions: 500 μM GMPPNP; pH 8; with hydroxocobalamin or photolysed AdoCbl; weaker oligomerization agonist than GMPPCP.

Substrate in the data set “purified protein”: Nc1nc2c(ncn2[C@@H]2O[C@H](COP(=O)(O)OP(=O)(O)OP(=O)(O)O)[C@@H](O)[C@H]2O)c(=O)[nH]1
Kind of data set: purified protein. The data set is classed as biochemical, Cupriavidus metallidurans. Conditions: GTPase, 0.5 μM enzyme, 23 °C, GTP 2–1500 μM.

Data set [3] deals with the molecule itself. Kind of data set: negative stain EM; 20 ng/μl wt IcmF in 20 mM Hepes pH 8, 50 mM NaCl, no nucleotide or 500 μM GDP (30 min on ice); dimer seen, dimer with dimer not seen.
Data set [4] concerns the molecule itself. Description: cryo-EM structure; 2 μM Q341A IcmF, 500 μM GTP in SEC buffer; 4.6 Å reconstruction, three protomers modelled.

Substitutions are numbered along the chain they refer to. Names may count otherwise.

T1 sequence (Q1LRY0 whole entry Q341A, the tested form may be a part): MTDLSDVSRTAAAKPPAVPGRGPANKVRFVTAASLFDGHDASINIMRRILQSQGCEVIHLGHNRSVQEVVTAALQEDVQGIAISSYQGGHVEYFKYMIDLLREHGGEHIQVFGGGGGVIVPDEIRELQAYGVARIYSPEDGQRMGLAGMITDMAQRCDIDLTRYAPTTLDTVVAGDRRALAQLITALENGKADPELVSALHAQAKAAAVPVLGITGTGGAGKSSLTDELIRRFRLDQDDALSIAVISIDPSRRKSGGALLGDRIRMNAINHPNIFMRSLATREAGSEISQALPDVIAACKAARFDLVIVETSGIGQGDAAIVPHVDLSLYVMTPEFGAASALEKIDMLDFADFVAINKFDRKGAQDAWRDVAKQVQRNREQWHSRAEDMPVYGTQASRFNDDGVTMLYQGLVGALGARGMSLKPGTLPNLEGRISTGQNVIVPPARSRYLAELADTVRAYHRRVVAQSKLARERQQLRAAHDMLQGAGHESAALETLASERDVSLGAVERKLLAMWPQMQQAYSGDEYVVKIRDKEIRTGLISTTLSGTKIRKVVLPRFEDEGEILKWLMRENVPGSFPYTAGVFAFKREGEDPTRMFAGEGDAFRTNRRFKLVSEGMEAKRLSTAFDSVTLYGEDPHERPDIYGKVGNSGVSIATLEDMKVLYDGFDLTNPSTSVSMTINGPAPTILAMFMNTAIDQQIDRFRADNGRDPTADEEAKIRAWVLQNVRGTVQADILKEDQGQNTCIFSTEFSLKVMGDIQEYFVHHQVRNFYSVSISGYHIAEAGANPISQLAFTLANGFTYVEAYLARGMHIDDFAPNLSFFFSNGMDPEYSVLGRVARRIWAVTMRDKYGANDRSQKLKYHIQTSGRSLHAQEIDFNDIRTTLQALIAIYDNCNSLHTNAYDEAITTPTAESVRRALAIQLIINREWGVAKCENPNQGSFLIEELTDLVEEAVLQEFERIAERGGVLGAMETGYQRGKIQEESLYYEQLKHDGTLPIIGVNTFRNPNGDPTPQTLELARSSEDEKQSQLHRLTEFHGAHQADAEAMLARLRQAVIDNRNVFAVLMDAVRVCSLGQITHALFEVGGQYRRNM

As for `Nc1nc2c(ncn2[C@@H]2O[C@H](COP(=O)(O)OP(=O)(O)O)[C@@H](O)[C@H]2O)c(=O)[nH]1` [GDP], the “cryo-EM, 4.6 Å” value in data set [1] is on record as “there was clear density for GDP at each nucleotide-binding site”.

Turning to `Nc1nc2c(ncn2[C@@H]2O[C@H](COP(=O)(O)OP(=O)(O)NP(=O)(O)O)[C@@H](O)[C@H]2O)c(=O)[nH]1` [GMPPNP], in data set [2], the “negative stain EM of oligomers” value is “Photolysis of AdoCbl leads to more supramolecular complex formation but not as many as in the GMPPNP + OHCbl”.

B1: Cupriavidus metallidurans isobutyryl-CoA mutase fused (IcmF), wild type (enzyme, UniProt Q1LRY0 1-1093, looked up)
chain: T2 sequence (Q1LRY0 1-1093)
notes: Isobutyryl-CoA mutase fused (IcmF) of Cupriavidus metallidurans; Resting state is a homodimer; dimers join through their G-protein domains into higher-order oligomers; The plasmid has a thrombin cleavage site after the His-tag; no cleavage is described; also called wt IcmF; cmIcmF; source: E. coli BL21 T7 Express, purified (Ni-NTA, MonoQ, SEC)
As usually defined, the Km is the concentration of substrate that gives half-maximal velocity. As usually defined, the Vmax is the rate approached at saturating substrate. Usually kcat stands for the number of substrate molecules converted per active site and unit of time at saturation. Broadly, the kcat/Km is the second-order rate constant that governs catalysis at low substrate concentration. By stoichiometry N is commonly meant a count of units in the complex or per binding partner. For B1, in the data set “purified protein”, the Michaelis constant (Km) amounted to 2.4 ± 0.9 µM, the maximal velocity (Vmax) turned out to be 1.57 µM/min, the kcat came to 0.0522 ± 0.003 s⁻¹ and the kcat/Km worked out at 21700 M⁻¹ s⁻¹. In data set [3], the “stoichiometry N” value worked out at 2.

B2: Cupriavidus metallidurans isobutyryl-CoA mutase fused (IcmF), Q341A switch III variant (enzyme, UniProt Q1LRY0 1-1093, looked up)
chain: T2 sequence (Q1LRY0 1-1093) with Q341A
notes: Isobutyryl-CoA mutase fused (IcmF) of Cupriavidus metallidurans with Q341A in the switch III region of the G-protein domain; also called Q341A IcmF; source: E. coli BL21 T7 Express, purified (Ni-NTA, MonoQ, SEC)
In the case of B2, in the data set “purified protein”, the Km stood at 2.2 ± 0.8 µM, the Vmax amounted to 0.533 µM/min, the turnover number (kcat) turned out to be 0.0178 ± 0.00117 s⁻¹ and the kcat/Km stood at 8170 M⁻¹ s⁻¹. In data set [4], the binding result is listed as “binds”.
